Several values for one entry are separate records, joined by “and”; a condition that tells them apart may be missing. Equal entries are not always repeated.

Data set [1] has as its target T1, FBF-2 RBD;LST-1 19-98 S74C (Caenorhabditis elegans;Caenorhabditis …, UniProt Q09312;P91820 164-575;19-98, |S74C).
T1 sequence 1: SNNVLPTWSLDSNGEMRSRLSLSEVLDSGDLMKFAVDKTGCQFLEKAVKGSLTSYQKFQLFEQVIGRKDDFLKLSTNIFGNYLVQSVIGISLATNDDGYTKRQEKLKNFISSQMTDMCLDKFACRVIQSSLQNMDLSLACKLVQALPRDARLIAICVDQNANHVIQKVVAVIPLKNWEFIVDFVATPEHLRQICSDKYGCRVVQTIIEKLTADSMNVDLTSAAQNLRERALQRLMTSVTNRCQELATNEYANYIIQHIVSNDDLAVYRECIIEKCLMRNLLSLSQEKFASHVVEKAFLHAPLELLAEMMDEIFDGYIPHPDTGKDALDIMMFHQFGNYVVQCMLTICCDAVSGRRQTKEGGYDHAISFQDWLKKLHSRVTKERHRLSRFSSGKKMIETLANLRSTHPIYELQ
T1 sequence 2: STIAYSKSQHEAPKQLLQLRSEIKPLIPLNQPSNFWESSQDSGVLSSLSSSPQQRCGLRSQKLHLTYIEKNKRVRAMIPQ
The experiment in a line: FRET; 2 uM FBF-2 RBD; higher FRET than S26C; EMSA: 5 nM RNA, 10 mM HEPES pH 7.4, 75 mM NaCl, 0.01% Tween 20, 0.1 mg/ml BSA, 0.1 mg/ml yeast tRNA, 2 mM DTT, 4 C overnight. The note with it: protein: recombinant;recombinant; tags: His-SUMO, removed by TEV;Cy5-maleimide on C74; chain copies: 2;1; label: 5'-Cy3.

In data set [2] the target is T2, FBF-2 RBD (Caenorhabditis elegans, UniProt Q09312 164-575).
T2 sequence: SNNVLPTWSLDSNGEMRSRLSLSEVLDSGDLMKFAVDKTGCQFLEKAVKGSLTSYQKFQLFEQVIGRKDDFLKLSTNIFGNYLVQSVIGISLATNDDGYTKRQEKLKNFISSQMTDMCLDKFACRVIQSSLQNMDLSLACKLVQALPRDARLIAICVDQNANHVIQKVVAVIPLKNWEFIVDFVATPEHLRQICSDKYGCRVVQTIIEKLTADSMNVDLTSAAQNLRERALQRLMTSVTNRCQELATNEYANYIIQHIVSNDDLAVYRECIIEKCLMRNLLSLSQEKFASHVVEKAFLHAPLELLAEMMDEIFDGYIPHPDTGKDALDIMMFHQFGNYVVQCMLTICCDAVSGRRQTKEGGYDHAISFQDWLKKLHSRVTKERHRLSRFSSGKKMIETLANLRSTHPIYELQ
Nature of the data set: X-ray crystallography; 2.2 A; EMSA: 5 nM RNA, 10 mM HEPES pH 7.4, 75 mM NaCl, 0.01% Tween 20, 0.1 mg/ml BSA, 0.1 mg/ml yeast tRNA, 2 mM DTT, 4 C overnight. To be noted: protein: recombinant; tags: His-SUMO, removed by TEV.

Data set [3] has as its target T3, FBF-2 RBD+CT (Caenorhabditis elegans, UniProt Q09312 164-632).
T3 sequence: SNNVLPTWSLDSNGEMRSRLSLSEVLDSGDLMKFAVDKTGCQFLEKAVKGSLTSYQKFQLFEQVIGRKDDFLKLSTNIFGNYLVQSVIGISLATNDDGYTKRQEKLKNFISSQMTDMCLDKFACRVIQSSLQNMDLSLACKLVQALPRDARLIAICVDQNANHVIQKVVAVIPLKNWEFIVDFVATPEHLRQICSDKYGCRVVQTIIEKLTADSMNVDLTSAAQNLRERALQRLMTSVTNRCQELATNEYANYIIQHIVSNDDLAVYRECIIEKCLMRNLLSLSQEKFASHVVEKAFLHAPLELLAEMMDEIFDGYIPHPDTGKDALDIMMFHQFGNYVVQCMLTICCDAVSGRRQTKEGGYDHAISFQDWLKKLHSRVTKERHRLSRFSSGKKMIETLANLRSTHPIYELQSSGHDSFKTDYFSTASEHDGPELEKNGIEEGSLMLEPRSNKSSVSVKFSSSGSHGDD
Nature of the data set: EMSA; up to 5 uM FBF-2; EMSA: 5 nM RNA, 10 mM HEPES pH 7.4, 75 mM NaCl, 0.01% Tween 20, 0.1 mg/ml BSA, 0.1 mg/ml yeast tRNA, 2 mM DTT, 4 C overnight. The note with it: protein: recombinant; tags: His6-SUMO, removed by Ulp1; label: 3'-Cy5.

In data set [4] the target is T3, FBF-2 RBD+CT. The experiment in a line: EMSA; apparent Kd, Hill fit; EMSA: 5 nM RNA, 10 mM HEPES pH 7.4, 75 mM NaCl, 0.01% Tween 20, 0.1 mg/ml BSA, 0.1 mg/ml yeast tRNA, 2 mM DTT, 4 C overnight. The note with it: protein: recombinant; tags: His6-SUMO, removed by Ulp1; label: 3'-Cy5.
Data set [5] addresses T2, FBF-2 RBD. The description is as above. To be noted: protein: recombinant; tags: His-SUMO, removed by TEV; label: 3'-Cy5.
The target in data set [6] is T4, C. elegans FBF-2 RBD+CT (residues 164-632) (C. elegans, UniProt Q09312 164-632).
T4 sequence (looked up): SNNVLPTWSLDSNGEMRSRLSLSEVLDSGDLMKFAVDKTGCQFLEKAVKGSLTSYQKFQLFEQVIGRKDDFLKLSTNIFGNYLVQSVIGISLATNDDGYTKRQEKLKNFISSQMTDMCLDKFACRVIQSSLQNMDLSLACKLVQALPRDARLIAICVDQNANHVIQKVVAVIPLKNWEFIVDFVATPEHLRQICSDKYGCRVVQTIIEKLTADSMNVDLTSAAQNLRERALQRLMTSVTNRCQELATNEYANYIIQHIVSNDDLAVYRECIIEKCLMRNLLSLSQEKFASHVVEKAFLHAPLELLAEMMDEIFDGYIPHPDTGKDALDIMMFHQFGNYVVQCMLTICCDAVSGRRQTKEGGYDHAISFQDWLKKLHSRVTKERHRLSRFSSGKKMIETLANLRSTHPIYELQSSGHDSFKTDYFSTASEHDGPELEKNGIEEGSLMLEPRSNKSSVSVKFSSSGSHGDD
The experiment in a line: cell-based or functional assay.

The target in data set [7] is T5, C. elegans FBF-2 RBD (residues 164-575) (C. elegans, UniProt Q09312 164-575).
T5 construct: His-SUMO tag cleaved with TEV protease (the insert came from an earlier pGEX6p FBF-2 RBD construct); source: E. coli, purified as FBF-2 RBD+CT (Ni-NTA, heparin, Superdex 75); for SEC-MALS and cryo-EM coexpressed with GST-LST-1 19-98 in E. coli BL21-CodonPlus (DE3)-RIL and purified as a complex; not shown: His6-SUMO, N-terminal, cleaved
T5 sequence (looked up): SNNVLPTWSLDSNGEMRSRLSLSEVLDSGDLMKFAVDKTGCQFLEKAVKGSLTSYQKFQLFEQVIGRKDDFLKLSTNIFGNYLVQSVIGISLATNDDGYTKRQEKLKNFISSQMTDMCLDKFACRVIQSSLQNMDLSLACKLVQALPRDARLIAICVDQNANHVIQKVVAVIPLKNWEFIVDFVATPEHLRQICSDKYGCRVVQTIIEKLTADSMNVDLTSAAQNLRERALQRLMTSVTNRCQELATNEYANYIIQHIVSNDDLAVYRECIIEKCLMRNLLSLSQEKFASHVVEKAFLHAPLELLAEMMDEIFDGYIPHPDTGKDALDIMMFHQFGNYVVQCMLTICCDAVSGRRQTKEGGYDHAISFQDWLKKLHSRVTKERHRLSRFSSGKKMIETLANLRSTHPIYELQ
Nature of the data set: ITC; LST-1 variant (100-400 µM) titrated from the syringe into the cell with FBF-2 (10-30 µM); 20 °C; 20 mM HEPES pH 7.4, 150 mM NaCl, 0.5 mM TCEP; no RNA; one-site model; apparent constants; two technical replicates. To be noted: both partners purified.

Data set [8] has as its target T4, C. elegans FBF-2 RBD+CT (residues …). The data set is described as above. To be noted: both partners purified.
In data set [9] the target is T5, C. elegans FBF-2 RBD (residues 164-575). The experiment in a line: SEC-MALS; co-purified FBF-2 RBD+CT or RBD/LST-1 19-98 complex (~30 µM) with 29-nt gld-1 FBEa-FBEa* RNA on Superdex-200 10/300 GL; 20 mM HEPES pH 7.4, 150 mM NaCl, 2 mM DTT. To be noted: both partners purified.
For data set [10], the target named is T4, C. elegans FBF-2 RBD+CT (residues …). Described as above. To be noted: both partners purified.
Data set [11] concerns the target T5, C. elegans FBF-2 RBD (residues 164-575). The experiment in a line: FRET or BRET; 2 µM unlabeled FBF-2 RBD pre-incubated with Cy5-labeled LST-1 19-98 (20, 40, 80 nM), then 20 nM 5'-Cy3 gld-1 FBEa-FBEa* RNA; room temperature; FRET from Cy3 on the RNA to Cy5 on LST-1. The note with it: both partners purified.

Consider AUCAUGUGCCAUACAUCAUGUUGCCAUUU (ssRNA) [gld-1 FBEa-FBEa* (FRET)], for which the binding result in data set [1] is reported as “binds”.
Take CAUGUUGCCAU (ssRNA) [gld-1 FBEa* 11-nt (crystal)]: the binding result in data set [2] is “binds”.
AUCAACAGCCAUACAUCAACAUGCCAUUU (ssRNA) [FBEam-FBEa*m]: in data set [3], the binding result was “no binding”.
As for AUCAUGUGCCAUACAUCAACAUGCCAUUU (ssRNA) [FBEa-FBEa*m], the Kd is 1190 ± 9 nM in data set [4] and 145 ± 4 nM in [5].

B1: LST-1 peptide (residues 19-98) spanning PIM-A and PIM-B (domain or fragment, C. elegans, UniProt P91820 19-98, looked up)
chain: STIAYSKSQHEAPKQLLQLRSEIKPLIPLNQPSNFWESSQDSGVLSSLSSSPQQRSGLRSQKLHLTYIEKNKRVRAMIPQ
notes: LST-1 (lateral signaling target 1), C. elegans, residues 19-98 of the N-terminal intrinsically disordered region; Codon-optimised synthetic cDNA in pSMT3; tag removed with Ulp1; also called LST-1^19–98; source: E. coli BL21-CodonPlus (DE3)-RIL, purified (Ni-NTA, heparin, Ni-NTA pass, Superdex 75)
As to B1, in [6], the “EMSA: RNA-binding affinity of FBF-2 RBD+CT for the 29-nt FBEa-FBEa* RNA with 10 µM LST-1 19-98 against without LST-1” value came to 4 fold. In addition, in data set [7], the Kd was 480 nM and 520 nM; the dH was -33.2 kcal/mol and -37.5 kcal/mol; the “stoichiometry N” value worked out at 0.46 sites. For the same molecule, in data set [8], the Kd was 1100 nM and 1900 nM; the dH was -14.8 kcal/mol and -10.8 kcal/mol; the “stoichiometry N” value is 0.5 sites and 0.57 sites.

B2: LST-1^19–98 from the GST fusion coexpressed with FBF-2 (domain or fragment, C. elegans, UniProt P91820 19-98, looked up)
chain: STIAYSKSQHEAPKQLLQLRSEIKPLIPLNQPSNFWESSQDSGVLSSLSSSPQQRSGLRSQKLHLTYIEKNKRVRAMIPQ
notes: LST-1, C. elegans, residues 19-98; GST removed with TEV protease; also called GST-LST-1^19–98; not shown: GST, N-terminal, cleaved
Consider B2, for which the “stoichiometry N” value in data set [9] and in data set [10] was 2 FBF-2 per LST-1 throughout.

B3: LST-1^19–98(A^m): K32A, L35A (domain or fragment, C. elegans, UniProt P91820 19-98, looked up)
chain: STIAYSKSQHEAPAQLAQLRSEIKPLIPLNQPSNFWESSQDSGVLSSLSSSPQQRSGLRSQKLHLTYIEKNKRVRAMIPQ
notes: LST-1, C. elegans, residues 19-98 with PIM-A mutated; PIM-B intact; also called LST-1 A^m; source: E. coli, purified by the same protocol as the wild-type LST-1 19-98
Turning to B3, in data set [7], the Kd was 130 nM and 120 nM; the dH was -15.3 kcal/mol and -16.5 kcal/mol; the “stoichiometry N” value is 1.15 sites and 1.05 sites. Moreover, in data set [8], the Kd was 3700 nM and 2800 nM; the dH is -11.4 kcal/mol and -11.5 kcal/mol; the “stoichiometry N” value was 1.02 sites and 0.98 sites.

B4: LST-1^19–98 S74C labeled with Cy5 (domain or fragment, C. elegans, UniProt P91820 19-98, looked up)
chain: STIAYSKSQHEAPKQLLQLRSEIKPLIPLNQPSNFWESSQDSGVLSSLSSSPQQRCGLRSQKLHLTYIEKNKRVRAMIPQ
modifications: Cy5 maleimide dye on C74
notes: LST-1, C. elegans, residues 19-98 with a cysteine in place of S74, five residues upstream of PIM-B; Probably made as the wild-type LST-1 19-98 (His6-SUMO, cleaved); also called C74-labeled LST-1^19–98; source: purified; expression not described for this mutant
As to B4, the binding result in data set [11] is listed as “binds”.

B5: LST-1^19–98(B^m): K80A, L83A, Y85A (domain or fragment, C. elegans, UniProt P91820 19-98, looked up)
chain: STIAYSKSQHEAPKQLLQLRSEIKPLIPLNQPSNFWESSQDSGVLSSLSSSPQQRSGLRSQALHATAIEKNKRVRAMIPQ
notes: LST-1, C. elegans, residues 19-98 with PIM-B mutated; PIM-A intact; also called LST-1 B^m; source: E. coli, purified by the same protocol as the wild-type LST-1 19-98
Take B5: in data set [7], the Kd was 1460 nM and 1540 nM; the dH is -12.1 kcal/mol and -12.5 kcal/mol; the “stoichiometry N” value is 0.83 sites and 0.86 sites. For the same molecule, in data set [8], the Kd was 24100 nM and 46200 nM; the dH was -11.1 kcal/mol and -11.5 kcal/mol; the “stoichiometry N” value was 1.06 sites and 0.89 sites.

The record behind these values is article PMC11696143, “A higher order PUF complex is central to regulation of C. elegans germline stem cells” (Nature Communications, 2024).
